Blank lines part the entries; values can stand above or below the substance they belong to.
Columns and labels:
[1] = biological target: human BDCA2 (full-length, cell surface) (human) (UniProt Q8WTT0); test: FACS dot plot (SSC-H against FL4-H) of the CHO cells with lower BDCA2 expression used in FIG 22B, stained with APC-labelled AC144; gate from about 2x10^1 to 10^4
[2] = biological target: human BDCA2 (full-length, cell surface) (human) (UniProt Q8WTT0); test: FACS dot plot (SSC-H against FL4-H) of the CHO cells EAG2456 T1F2 Clone 34.16.7 with high BDCA2 expression, stained with APC-labelled AC144; cells spread from about 10^1 to 10^4
human C1q (human) [3] = biological target: human C1q (human) (UniProt P02745); test: C1q ELISA: antibody coated in a dilution series, human C1q at 2 µg/mL, read at 450 nm; fit of a flat curve; the unit is from the legend paragraph 61, none on the axis; A 0.06, B 41.873, D 0.09, R^2 0.735
human C1q (human) [4] = biological target: human C1q (human) (UniProt P02745); test: C1q ELISA: antibody coated in a dilution series, human C1q at 2 µg/mL, read at 450 nm; column C (midpoint, the C value of paragraph 430) of the printed 4-parameter fit; the axis reads Concentration with no unit, the unit of the coated antibody is from the legend paragraph 61; A 0.06, B 2.093, D 1.573, R^2 0.997

human C1q (human), sequence (P02745 23-245 limits assumed, chain 1 of 3): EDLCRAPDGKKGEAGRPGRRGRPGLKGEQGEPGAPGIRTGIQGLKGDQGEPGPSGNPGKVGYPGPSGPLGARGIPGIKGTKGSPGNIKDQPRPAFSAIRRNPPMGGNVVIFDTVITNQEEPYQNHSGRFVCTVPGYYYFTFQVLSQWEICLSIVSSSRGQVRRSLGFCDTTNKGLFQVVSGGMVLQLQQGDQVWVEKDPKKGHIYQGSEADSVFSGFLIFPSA
human C1q (human), sequence (P02746 28-253 limits assumed, chain 2 of 3, further chain): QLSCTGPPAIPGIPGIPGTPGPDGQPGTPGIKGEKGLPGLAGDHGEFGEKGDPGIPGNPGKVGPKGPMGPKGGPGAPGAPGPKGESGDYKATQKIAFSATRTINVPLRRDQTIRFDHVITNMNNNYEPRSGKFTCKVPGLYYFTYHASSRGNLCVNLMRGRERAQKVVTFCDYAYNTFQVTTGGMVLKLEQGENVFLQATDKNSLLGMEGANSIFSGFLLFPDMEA
human C1q (human), sequence (P02747 29-245 limits assumed, chain 3 of 3, further chain): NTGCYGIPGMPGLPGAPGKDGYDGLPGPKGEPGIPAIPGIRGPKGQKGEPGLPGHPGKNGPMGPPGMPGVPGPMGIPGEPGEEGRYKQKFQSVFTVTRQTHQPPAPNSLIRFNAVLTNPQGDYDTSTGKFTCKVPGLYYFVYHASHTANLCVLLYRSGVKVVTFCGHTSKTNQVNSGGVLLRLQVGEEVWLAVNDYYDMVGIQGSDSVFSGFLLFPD
human BDCA2 (full-length, cell surface) (human), sequence (Q8WTT0 whole entry): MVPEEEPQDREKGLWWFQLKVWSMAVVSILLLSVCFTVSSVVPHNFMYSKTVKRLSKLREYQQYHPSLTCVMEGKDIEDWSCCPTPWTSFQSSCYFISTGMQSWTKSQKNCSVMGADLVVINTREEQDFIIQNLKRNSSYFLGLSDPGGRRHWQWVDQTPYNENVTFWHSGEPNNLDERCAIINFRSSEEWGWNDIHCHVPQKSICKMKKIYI
5C8 control (antibody), sequence (heavy): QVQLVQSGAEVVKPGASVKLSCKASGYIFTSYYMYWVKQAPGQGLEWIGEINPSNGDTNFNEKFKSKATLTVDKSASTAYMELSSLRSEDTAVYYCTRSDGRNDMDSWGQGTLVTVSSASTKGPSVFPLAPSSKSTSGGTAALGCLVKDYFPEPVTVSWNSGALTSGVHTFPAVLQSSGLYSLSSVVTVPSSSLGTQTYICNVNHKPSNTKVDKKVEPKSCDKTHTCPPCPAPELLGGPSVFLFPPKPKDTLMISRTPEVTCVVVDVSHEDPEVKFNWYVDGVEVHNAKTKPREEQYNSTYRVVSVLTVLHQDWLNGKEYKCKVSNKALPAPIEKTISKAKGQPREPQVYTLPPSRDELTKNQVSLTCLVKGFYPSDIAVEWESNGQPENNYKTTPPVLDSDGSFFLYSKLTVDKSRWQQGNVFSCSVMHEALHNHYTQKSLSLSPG
5C8 control (antibody), sequence (light): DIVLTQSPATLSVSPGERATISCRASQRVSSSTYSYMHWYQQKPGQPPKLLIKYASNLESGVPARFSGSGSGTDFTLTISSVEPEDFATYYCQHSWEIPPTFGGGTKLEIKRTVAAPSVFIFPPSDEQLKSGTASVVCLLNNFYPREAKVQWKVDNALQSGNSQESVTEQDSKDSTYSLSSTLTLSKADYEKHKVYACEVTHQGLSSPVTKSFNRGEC

frequency printed in the gate BDCA2 (percent of cells) [1]: 87.8 | frequency printed in the FL4-positive gate (percent of cells) [2]: 99.4
Substance: anti-human BDCA2 AC144 mAb (Miltenyi Biotec) (antibody)

C of the 4-parameter fit (midpoint), curve flat (human C1q (human) [3]): 0.062 µg/mL
Substance: 5c8 G4P/G1agly (antibody)

EC50 (human C1q (human) [4]): 2.21 µg/mL
Substance: 5C8 control (antibody)
